Here are results for one molecule from US20190119696A1 (YEDA RESEARCH AND DEVELOPMENT, published 2019).

The target of this experiment is T1, APS1 (small subunit of ADP-glucose pyrophosphorylase, AGPase; AT5G48300), endogenous in Arabidopsis plants (Arabidopsis thaliana, UniProt P55228 72-520, limits assumed).
T1 construct: Endogenous plant protein
T1 sequence (looked up): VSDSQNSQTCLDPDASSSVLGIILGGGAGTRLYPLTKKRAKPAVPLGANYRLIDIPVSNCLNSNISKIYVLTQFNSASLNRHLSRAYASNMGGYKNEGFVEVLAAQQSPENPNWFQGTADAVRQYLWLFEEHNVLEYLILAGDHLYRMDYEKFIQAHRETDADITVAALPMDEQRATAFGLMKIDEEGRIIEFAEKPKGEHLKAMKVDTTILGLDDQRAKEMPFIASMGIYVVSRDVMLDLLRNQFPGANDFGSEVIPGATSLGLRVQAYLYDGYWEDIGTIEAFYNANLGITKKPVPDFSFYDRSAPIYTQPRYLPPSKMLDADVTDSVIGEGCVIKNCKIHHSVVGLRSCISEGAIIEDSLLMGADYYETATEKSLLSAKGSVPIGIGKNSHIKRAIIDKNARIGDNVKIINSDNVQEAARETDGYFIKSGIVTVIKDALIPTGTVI
Briefly: in planta trapping of intermolecular disulfide reaction intermediates; non-reducing SDS-PAGE, anti-HA immunoblot. (A western blot detects proteins with antibodies after separation by electrophoresis.)

B1: ACHT4ΔC (Arabidopsis ACHT4 lacking the 47-amino acid C-terminus), fused to the HA3 affinity tag (enzyme, not shown: small tags and cut ends)
chain: SSAITAQTTLRIGTAQKWWEKGLKDNMREISSAQELVDSLTNAGDKLVVVDFFSPGCGGCKALHPKICQFAEMNPDVQFLQVNYEEHKSMCYSLGVHVLPFFRFYRGSQGRVCSFSCTNATIKKFRDALAKHGPDRCSLGPTKGLEEKELVALAAN
notes: also called AtACHT4ΔC; AtACHT4-C-Del
As for B1, the binding result is “no binding”.
